Experimental data from patent publication US20150051149A1 (published 2015).

B1: Adnectin-2 (designed binder)
chain: MASTSGVSDVPRDLEVVAATPTSLLISWDAPAVTVNNYRITYQPLLQGSSIQHFDVPGSKSTATISGLKPGVGYQITVYASTYTHSKAYYSLPISIYYRTEGSGSHHHHHH
B2: Adnectin-3 (designed binder)
chain: MASTSGVSDVPRDLEVVAATPTSLLISWDAPAVPVSKYVIYYWPGALISSMQAFKVPGSKSTATISGLKPGVLYSIVVDALTGDGQGSYVWDPITITYRTEGSGSHHHHHH

Biological target: T1, human PXR-GST (Invitrogen) (human, UniProt O75469 111-434, limits assumed)
T1 construct: Captured on an anti-GST antibody chip; also called GST-PXR; GST-tagged PXR; not shown: GST tag
T1 sequence (looked up): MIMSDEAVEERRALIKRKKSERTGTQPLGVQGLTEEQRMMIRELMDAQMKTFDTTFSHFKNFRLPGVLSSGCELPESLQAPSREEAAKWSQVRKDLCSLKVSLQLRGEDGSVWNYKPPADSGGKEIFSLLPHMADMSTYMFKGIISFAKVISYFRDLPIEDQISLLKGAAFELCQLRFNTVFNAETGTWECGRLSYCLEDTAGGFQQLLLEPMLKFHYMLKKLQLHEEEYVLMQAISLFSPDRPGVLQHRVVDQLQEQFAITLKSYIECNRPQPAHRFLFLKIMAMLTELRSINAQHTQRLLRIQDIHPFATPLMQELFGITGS
Experiment: SPR, Biacore T100, human PXR-GST captured on anti-GST antibody

Row | Binder | kon
1 | B1 | 162000 M⁻¹ s⁻¹
2 | B2 | 16200 M⁻¹ s⁻¹
